Experiment: soluble fraction after stress (log2 fold change); higher = more stays soluble; pooled small domains, quantitative proteomics
Settings: stress: 75 degC
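Note: 20 min heating vs room temperature control held 20 min.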

| Sequence | soluble fraction (log2) |
| --- | --- |
| HMVEMPEVGVKVRIEVESHNGSTNFEGIVLHPASKGHLTLKLINGYNASYLIEEIRNLEIIDSS | -1.64 |
| HMVENATPEEREALNDIAMEAMGMVKDGKPTSAREFVQSQNLDNDQKILLWSLLDAPTRSALKTAEK | 0.373 |
| HMVEPIKAPMPGMVLKILVEPGQQIEKGQGVLILEAMKMENVLKSSAAATVKSIKVSEKSAVEKGAILVEL | -0.463 |
| HMVEQVEISILPGEYSDTISQKLLDAGLIDDKAAFSKYINDTNVDNLIQPGTFTVPKGASYEEVAKILT | 0.214 |
| HMVERRVRFTVAPGNAGLRLDLFLTAREIGLSRTQVGRAVDEGQIQVNGRPGRAGRKLKTGDVVAIVLPA | -1.13 |
| HMVESLTDRELQILSLAAKGYTNKAIAVQLGISDRTVQNHLANTFQKLNAESRTEAVMRAVSLGLISA | -0.542 |
| HMVETVQVVGAGQDIMPGSRINYSSLHYITVPRSYFHEDMFAKNNLVVGRIARAYVAKGEPLLAASLMPK | -2.29 |
| HMVEVPYSEFLKELDAGNVKDVYVSNGESQIQFTKKDQKQWNLSYKTGPIPGDDLVKRLQNADVENFT | 0.109 |
| HMVEVTTDEITRPGAMVSGSVTFSDGVKAIWLIDEYGRPGLEPETPGYQPSESDLSEFEKHLRALLQ | 0.362 |
| HMVEVVDAEKLEERLSKVFSAAVLLEIYNENPAHGKEYAYLFTARKNAVEEMIENGQMKRETWEAK | -0.987 |
| HMVFSKEELLFNSDSLLSLYPNDNKLLETILSEKIDHAVKNNDMSMYKEILVIDPKNPLANYHLLM | 0.354 |
| HMVFTEEERAEYREKMLDAGFDLLKQYGMTHMSVAKITEAAGIGVSTFYNFFSSKEEYVYEVLQYRRRK | -1.3 |
| HMVGIVQKTFEPTGIAAEELMKTLKSDKSLDFGNVQILATPKSSTSRQVVVVSGRANDVDRVMMVLSNLDS | -0.326 |
| HMVGKIVVPHLEGKPAEMARDILARDGFKSVHEEVLPSAEFGAGRVVRTEPHAGTNVAKTDPVTIFVSVGL | -0.268 |
| HMVGLTDLQRNVLVQIARGKSRQLISRTLKVTPAEISAALKVAQRRYRVASSTEVIVQALYDKTLSFHEIM | -0.707 |
| HMVIIPNILNKYKGLAFRQLEQVGLKIGDTIYEPNIQRDAVLRMQINGRSVQPGDQVMRFSVVDLVIG | -3.2 |
| HMVINKRELNVLSIYSRGSEKRAIILFPTGQTKLVKVGDTLNGGRVAAIGTTEIRYIKGGNNLVLKIPQ | -2.75 |
| HMVINVNEIIRRIKELKTFKTDRQVADFLGVSKATVSNWMARNSIDFPLLINKLDGVDLTWLLTGRGTPE | -2.15 |
| HMVIPATPTARRAKIAGLLADRSVRSQGELLTLLADAGIEVTQATLSRDLEALGAVKVRDGRGLVYAVPG | -0.32 |
| HMVIQRQIPPLVTRMLDGLEQFIQLDMPFDLDTRLGNIEAVRANMDRSDVTSAEAYRQVLELYSIELQ | -0.559 |
| HMVISLREINLIGVYGRPNARRALVRLSNGRYVRVEVGSDLDGGKVTAIGDEALNFVKRGRTYAIQLPA | -1.11 |
| HMVITPESVKEQVLAIISKSPAQGFNYKQISKRLNINDPSERKMVSDILRELSESGTIEEINKGKYRAKV | 0.186 |
| HMVKDYIQVTVNKEPVILKGKKDYIFIDIFNYIEFDLTIPKGSLYLLLNGKNAGYHDKLLDGDVIELGW | -2.17 |
| HMVKLDDLTGQDKASAEAAISNLGLKYSEQQEYSDEIEEGKVTRTDPGAGSTSLKAGDTVTVYISRGPE | 0.905 |
| HMVKLSATVKELLDFVIAKKTVTSSNVSKHFDISAQNASGRLKKLHATGLVLGQKEVAESGGLEFVYRS | -0.132 |
| HMVKLSDGIVEHIKSLIMAGRLKPGDKLPPEREFAATLGVSRTALREAVRTLSLMGLLDARQGEGTFVSG | -0.135 |

| Sequence | soluble fraction (log2) |
| --- | --- |
| HMVKPQANTIYKEYIKYRANLQNKNEFLSFSEYAKQKHNLEQMSEIMVDANLKEEMLETLKEMS | -0.0266 |
| HMVKSDLVGHRFILVEDVTPKLTPKYHYSGINWKLITTDNLVAGTRVEVIQVDVGKFHIKAIK | -1.85 |
| HMVKSIDEIYNEAVKSLANEDYDAAKKLFNYLINNFSDPDKFPLSLFWLAEIEFSSSNFDASKNYYMQ | 0.0365 |
| HMVKSSVTEVISMINALPVTVKPEDKADIISARMAYDTLTEDEKALVTNYEILTAAETRFNELIATT | 0.275 |
| HMVKTIINGEEKDFDAQDFQTFGDFLKKVIPEGQILKSLKINSKDVPIAFIDELKSATVDENITIEMELA | 0.682 |
| HMVLAEPLSERELDILRLLAAGDSNKEIAAVLYITEGTVKNHVTNILGKLDARDRTQAALRARELGL | -1.21 |
| HMVLGDQTFQSASAPKVFFGGDAAYGPKNIITAVAHGHDAAVSIDRFLHGEDVSKRPGPQVNLVS | 0.287 |
| HMVLRPDDVEDSLWREWVSHRKAKRAAVTEGVLKTFRQEATKASFTLADAMRKSIDRGWTGFEAEWVARET | -0.299 |
| HMVLSPAQVRRALMVSGLFTEARVARQLGVPMDLKQILRIILRNTPPQSAMARELESAIDEIESRNAMRD | -1.7 |
| HMVLSTRERMSNILATLKGGHFVNFSDLFTPEEGRLGVVVTFLAMLELIKESLLDIVQHEVLGPIHVKARV | 0.00479 |
| HMVLTGTIKKYNNERGFGFISTSNFGDVFFHIKDFQKGEQPIPGREVYFEVVKKENKKRAIHVYYSD | -1.95 |
| HMVLVSNYGEVVRKARERKGLDHGSLAMKISEKKSIITSVESGNMKPNEKLIKKLENFLNINLM | -1.69 |
| HMVMIPDLVGETIEDAKDILEGLGFEVEVRSEFPESDWGRPFARVTSLSPSAGQEVAKGTLVIIRSF | -1.05 |
| HMVMLIVMNHTASQADIDKVIEVVSGMGFTAAPIPGGERTAIGVLGNKGYVDDSTIRDLPGVQQAIHVSKP | -1.21 |
| HMVMSVGENIAYFRKKLGLTQEMLSERIGVTAQAVSKWENGVTNPDISLLPRISEALGIGIGDLFD | -1.94 |
| HMVNAVKFAIEKMPYKYSSLLTLKYVMGYSGKEIAEITGLSETNVRQQLLKGRKLLESMLEE | -2.9 |
| HMVNGTPADPYDVLGVESSASPEELRAAWQTLVRQNHPDQLMARGVPLEAVKLAEARLVAINQAWDDLTK | -0.0568 |
| HMVNHVGITVSNLERSIQFYEALTGKKIANQDTIGGKRMAQTQGLADTLIKYANLHLDNLNIDLLEYVE | -0.92 |
| HMVNIAVMTVSDTRTEADDKSGSLLVSKIEGDGHVLADRAIITDDVPRIIAKLKEWIESPQVDVVVT | -0.0813 |
| HMVNINEVEVSRDLAHAKVFVTFVGDRTDEINTQALKVLNAAQGFLRSRIASNNHMRTTPRIHF | -0.567 |
| HMVNIPEIAKKFGKSTSEVFEQIQIGEKHEMEHTNDPKKARKIALDHLSDDMDYYKKLKKLG | 0.212 |
| HMVNLKQVELREHHPWVGHKIKELDISRHTLIVMIRRGDNAIVPNGDTLIKSGDIVFVFSKR | -2.76 |
| HMVNPHPVYRSWGLLYVEARDGDSLESIAKEFGFSVKKLAKYNEVPKDYPLEAGDIVYLEKKKK | -1.63 |
| HMVNPIDFYLLFRTELQRLAEHPITVDRLTEVTGLNKLQVLDWLKRAEQDGLVKKLNRPTRYQLN | 0.233 |
| HMVPAMGSLTLIKGGVNLRNAPGGLTIAQLDRGLVLSYTKFVQKDGYTWYLVNSPKGTGYVRSDVVQLGS | -2.58 |
| HMVPDGFDQLTEREYQVAMAVGKGLNNKEIASQLGLGERTVKAHLTTTFEKLHVRDRVQLALIVNRL | -0.683 |

| Sequence | soluble fraction (log2) |
| --- | --- |
| HMVPDVVGKDYALAQAELEGANLVVAKGSSRYDDTLPAGVVLATDPKVGTVVKPGAKVTVILSK | 0.217 |
| HMVPLSMLTEGQIFRGQVLDITSQGIKIQLNPEQILFARLGEQVELNIGQQMAFQVRENKGDQLIIHPMQN | -0.353 |
| HMVPVQLTPRELQVARLAAHGASSPEIAAELRVSRRTVDNQLGRVYAKLGIAGRAELAAALSRLPVSV | -1.07 |
| HMVPVSIYAYNKIKTAILNNELMPGEKLVEASLAETLNMSRTPIREALRQLEQEGFVTYYPQKGSIVSH | -1.25 |
| HMVQAQGARIREARVQRGLSQAQLGEPRYSGSYISHIENGRRSPGTDVLAFIAARLGLEPGALDS | -0.978 |
| HMVQIFIPVVHDDHWFLIVFSREEDTFYVLDSLPSLSRISTINGIISTLKEHLQQASVGPQYSVKVLPVK | 0.226 |
| HMVQLAEGERYRRIQEANDFINRQQWPGKAAMGRLKDTEKAQYNLWLDYLDALEAVDTSSAPKINWPVPPE | 0.2 |
| HMVQQAVNMAKPGKLFTGPSPTSKALRDLDAGAMLYPTGEKQGPFWKVQDELGNEGWVAMGLLQLA | -0.0352 |
| HMVQVDNELTEFSVQSITRGIDALGEVTIRVTAPDGGVYTGRGADNDIIVSSTKAYLNALNRLLNDK | 0.0321 |
| HMVQYVDFVKRMIEELPWWHRRMLELKYLDGLTYEEIADELQVPVGTVKGTLHRAKELFQEILKNN | -3.29 |
| HMVRDPYELLEVPREATPDEIKSAFRKLAARHHPDRNPDDPGAQERFKEINAAYQLLSDPQKRAMFDRFGA | 0.159 |
| HMVRKIQAKLVLRLHAQGLSGRAIARSQGMSRRSVSDVLDAARAVGVGWDDVTGKTDGEVYALLFPGRG | -2.66 |
| HMVRKIRARLVLQLRAEGLSGRAIAGSQGMSRKSVTAVLDAADRAGIGWDEIAERSEGEVYALLFPGRG | -1.46 |
| HMVRQKYKSNFITVGDKSLTIHDWAQRLNLSQYALRNRYKEFGKEWVEKAIKTILETGDNTHIYK | -1.46 |
| HMVRSLADQVYERLRRNIVSGDLAPNARIVELDIAAQMGTSQGPVREALQRLEREGLVQRRAHSATFVTD | -0.554 |
| HMVRVSELAIEPRLVVEETATGFVGAVVRYANGLIELEDRHGAVRTFPLGPGYLVDGRPVSLVKPT | -0.577 |
| HMVSEDELLARIALLPYPQAKILLEERLSHDPANAKVRQLYLELAKKSGDHTEVTRHNSLLY | -0.347 |
| HMVSKIEAPLPGIILSVDVKEGDTVKAGDKLMVMEAMKMENAILAETNGVVKSIKVKIQDSVLQGDILAEI | -0.55 |
| HMVSKSDVQRALEKVEPVLRKLGGSTVEKVRVMARQATLVFEMLKSWWKGEIDLPWKTVAAMTVTLLYL | -0.451 |
| HMVSLNKTEFIAVKKASASELRDKINSLGLDVLKDATISADARTNQIIATGPKYALEQIKMLVVGLDVSS | -1.4 |
| HMVSLRQQVYDYLRSQMNQGELRPGSAINLGEMSSRFGISRTPLREALLQLETEGFVTIYPRKGIIVN | -1.63 |
| HMVSLTGEWRPSKDALDILITKGGINPNFIDDAVPEFILYWRDRGDVSNTWDSKFIQHVRRQWQFYTGI | -2.87 |
| HMVSMSFDDYVNDAKEYESEGDKDKAYNSYLEAYKLNKSSEEVLDYLIDNTEDVTLKLNYVYEYLDL | 0.00966 |
| HMVSNFEAEFGRHFAIFFPGSEFTELKLRLLEEGAELIDPIRDTPFERFFFKDPNGYIFEVIDKE | -2.81 |

Reference: the domain aggregation screens of Martell et al. (2025)
